The source of these data is paper PMC10210160, “Structural and biochemical elucidation of class I hybrid cluster protein natively extracted from a marine methanogenic archaeon” (Frontiers in Microbiology, 2023).

The target of data set [1] is T1, MtHCP (hybrid cluster protein, class I) (Methanothermococcus thermolithotrophicus, UniProt A0AA82WPD8).
T1 construct: gene hcp; native anaerobic purification from the archaeon, untagged; five extra N-terminal residues versus WP_026182881.1 (mispredicted start Met)
T1 sequence (A0AA82WPD8 1-548): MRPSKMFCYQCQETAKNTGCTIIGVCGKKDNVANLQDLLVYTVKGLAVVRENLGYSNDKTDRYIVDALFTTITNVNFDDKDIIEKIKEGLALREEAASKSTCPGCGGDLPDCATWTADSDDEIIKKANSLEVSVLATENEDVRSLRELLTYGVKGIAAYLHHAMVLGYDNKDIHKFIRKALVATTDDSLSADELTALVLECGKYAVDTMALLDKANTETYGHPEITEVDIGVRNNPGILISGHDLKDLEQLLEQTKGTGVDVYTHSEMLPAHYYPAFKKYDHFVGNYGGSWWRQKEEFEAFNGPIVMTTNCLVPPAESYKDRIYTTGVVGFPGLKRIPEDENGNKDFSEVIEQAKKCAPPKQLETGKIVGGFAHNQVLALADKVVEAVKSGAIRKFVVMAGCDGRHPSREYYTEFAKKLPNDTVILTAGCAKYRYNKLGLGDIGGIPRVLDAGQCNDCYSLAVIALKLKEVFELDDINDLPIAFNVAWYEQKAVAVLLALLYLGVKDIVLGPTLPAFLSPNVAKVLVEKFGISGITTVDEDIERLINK
Kind of data set: X-ray crystal structure, […] Å. It is filed as binding. The conditions noted are these: as isolated, reduced state (MtHCPred).

Substrate in the data set “purified protein”: NO
Put plainly: purified protein. Type of data set: biochemical, Methanothermococcus thermolithotrophicus. The conditions noted are these: 10 mM methyl viologen, 75 μM dithionite, 10 μM EDTA, 50 mM HEPES pH 7.35, 50°C, anaerobic.

As for `[S]12[Fe]3[S]4[Fe]1[S]1[Fe]2[S]3[Fe]41` [[4Fe-4S] cluster], in data set [1], the “X-ray crystal structure, 1.45 Å” value was “harbouring a cubane [4Fe-4S] cluster and the hybrid cluster”.

B1: MtHCP (hybrid cluster protein, class I) (Methanothermococcus thermolithotrophicus DSM 2095) (protein)
chain: MRPSKMFCYQCQETAKNTGCTIIGVCGKKDNVANLQDLLVYTVKGLAVVRENLGYSNDKTDRYIVDALFTTITNVNFDDKDIIEKIKEGLALREEAASKSTCPGCGGDLPDCATWTADSDDEIIKKANSLEVSVLATENEDVRSLRELLTYGVKGIAAYLHHAMVLGYDNKDIHKFIRKALVATTDDSLSADELTALVLECGKYAVDTMALLDKANTETYGHPEITEVDIGVRNNPGILISGHDLKDLEQLLEQTKGTGVDVYTHSEMLPAHYYPAFKKYDHFVGNYGGSWWRQKEEFEAFNGPIVMTTNCLVPPAESYKDRIYTTGVVGFPGLKRIPEDENGNKDFSEVIEQAKKCAPPKQLETGKIVGGFAHNQVLALADKVVEAVKSGAIRKFVVMAGCDGRHPSREYYTEFAKKLPNDTVILTAGCAKYRYNKLGLGDIGGIPRVLDAGQCNDCYSLAVIALKLKEVFELDDINDLPIAFNVAWYEQKAVAVLLALLYLGVKDIVLGPTLPAFLSPNVAKVLVEKFGISGITTVDEDIERLINK
notes: native anaerobic purification from the archaeon, untagged; five extra N-terminal residues versus WP_026182881.1 (mispredicted start Met)
Take B1: in the data set “purified protein”, the Michaelis constant (Km) stood at 2200 ± 500 µM and the kcat is 0.072 s⁻¹.
